Laboratory results as given in patent publication US20160130351A1 (NOVIMMUNE S A, published 2016).
Residue numbers refer to the chain shown, from its start.

T1: carrier-free soluble human IL-6R (R&D) (human, UniProt P08887 20-365)
T1 construct: extracellular domain; also called shuIL-6R; shuIL6-R
T1 sequence (looked up): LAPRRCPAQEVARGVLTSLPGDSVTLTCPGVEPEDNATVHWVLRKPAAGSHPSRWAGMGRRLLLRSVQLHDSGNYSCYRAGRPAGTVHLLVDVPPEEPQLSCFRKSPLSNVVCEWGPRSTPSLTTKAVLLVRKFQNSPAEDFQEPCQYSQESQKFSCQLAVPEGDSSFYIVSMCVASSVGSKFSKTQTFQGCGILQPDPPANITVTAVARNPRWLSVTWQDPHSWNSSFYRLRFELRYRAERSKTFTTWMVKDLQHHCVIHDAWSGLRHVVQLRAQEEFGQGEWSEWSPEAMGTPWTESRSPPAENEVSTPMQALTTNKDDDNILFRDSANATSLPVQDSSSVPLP

T2: soluble cynomolgus monkey IL-6R (cynomolgus monkey, UniProt A0A2K5WN54 60-396)
T2 construct: extracellular domain; also called scyIL-6R; soluble cynomolgus monkey IL-6 Receptor; not shown: C-terminal His- or Avi-Tag
T2 sequence: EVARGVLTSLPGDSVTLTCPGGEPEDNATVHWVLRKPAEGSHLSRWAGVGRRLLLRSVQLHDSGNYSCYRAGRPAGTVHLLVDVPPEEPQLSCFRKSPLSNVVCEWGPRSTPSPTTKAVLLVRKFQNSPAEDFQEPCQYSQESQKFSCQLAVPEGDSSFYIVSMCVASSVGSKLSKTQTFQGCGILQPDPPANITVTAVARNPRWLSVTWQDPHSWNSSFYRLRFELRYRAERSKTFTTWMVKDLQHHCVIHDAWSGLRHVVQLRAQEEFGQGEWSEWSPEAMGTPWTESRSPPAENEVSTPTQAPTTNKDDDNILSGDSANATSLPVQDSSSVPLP

B1: NI-1201-A antibody (antibody, V domains shown)
VH: QVQLVQSGAEVKKPGSSVKVSCKASGGTFSSYAISWVRQAPGQGLEWMGGIIPLFDTTKYAQKFQGRVTITADESTSTAYMELSSLRSEDTAVYYCARDRDILTDYYPMGGMDVWGQGTTVTVSS
VL: AIQLTQSPSSLSASVGDRVTITCRASQGISSVLAWYQQKPGKAPKLLIYDASSLESGVPSRFSGSGSGTDFTLTISSLQPEDFATYYCQQSNSYPLTFGGGTKVEIKR
B2: NI-1201-C antibody (antibody, V domains shown)
VH: B1 VH with L54A, D56E, M109L
VL: B1 VL
B3: NI-1201-D antibody (antibody, V domains shown)
VH: B1 VH with L54A, D56E, M109L
VL: B1 VL with N92Q
B4: NI-1201-B antibody (antibody, V domains shown)
VH: B1 VH with M109L
VL: B1 VL

molecular target: soluble human IL-6Rc (shuIL-6Rc) recombinant fusion protein of IL-6R and IL-6 (human) (UniProt P08887); test: SPR (Biacore 2000), mAb captured on anti-human IgG Fc, analyte in solution, 25 C, 1:1 Langmuir

Binder	Kd	koff	kon
B1	4.92 nM	0.000246 s⁻¹	50100 M⁻¹ s⁻¹
B2	5.03 nM	0.00024 s⁻¹	47700 M⁻¹ s⁻¹
B3	4.89 nM	0.000222 s⁻¹	45300 M⁻¹ s⁻¹
B4	4.43 nM	0.000237 s⁻¹	53400 M⁻¹ s⁻¹

molecular target: T1, carrier-free soluble human IL-6R (R&D); test: as above
Protocol: (§1) A CM5 Biacore chip was used and 1640 RU (response units) of an anti-human IgG Fc (Biacore AB, Uppsala, Sweden) was immobilized by EDC/NHS chemistry. […] The surface was regenerated after each cycle by injection of 3M magnesium chloride at 20 μL/min, for 30 s followed by lmin of stabilization time in HBS-EP buffer (Biacore AB, Uppsala, Sweden). Binding was measured by passing analytes carrier-free soluble human IL-6R (shuIL6-R; R&D), soluble human IL-6Rc (shuIL-6Rc) and soluble cynomolgus monkey IL-6R (scyIL-6R) in duplicates at the following concentrations: 100 nM, 50 nM, 25 nM, 12.5 nM, 6.25 nM and 0nM. All solutions were diluted in HBS-EP buffer. Injection was performed at 50 μl/min for 3 min followed by 12 min of dissociation time and the temperature was set at 25° C.

Binder	Kd	koff	kon
B1	0.121 nM	0.00011 s⁻¹	829000 M⁻¹ s⁻¹
B2	0.11 nM	0.00011 s⁻¹	992000 M⁻¹ s⁻¹
B3	0.134 nM	0.000102 s⁻¹	761000 M⁻¹ s⁻¹
B4	0.107 nM	9.4e-05 s⁻¹	875000 M⁻¹ s⁻¹

molecular target: T2, soluble cynomolgus monkey IL-6R; test: as above
Protocol: as §1

Binder	Kd	koff	kon
B1	2.05 nM	0.000213 s⁻¹	104000 M⁻¹ s⁻¹
B2	2.03 nM	0.000225 s⁻¹	111000 M⁻¹ s⁻¹
B3	1.79 nM	0.0002 s⁻¹	112000 M⁻¹ s⁻¹
B4	1.81 nM	0.000207 s⁻¹	115000 M⁻¹ s⁻¹
